Test results taken from IntAct's records for PubMed 21217698.

B1: DnaJ homolog subfamily B member 11 (Mus musculus), Q99KV1 (parent)
chain: MAPQNLSTFCLLLLYLIGTVIAGRDFYKILGVPRSASIKDIKKAYRKLALQLHPDRNPDDPQAQEKFQDLGAAYEVLSDSEKRKQYDTYGEEGLKDGHQSSHGDIFSHFFGDFGFMFGGTPRQQDRNIPRGSDIIVDLEVTLEEVYAGNFVEVVRNKPVARQAPGKRKCNCRQEMRTTQLGPGRFQMTQEVVCDECPNVKLVNEERTLEVEIEPGVRDGMEYPFIGEGEPHVDGEPGDLRFRIKVVKHRIFERRGDDLYTNVTVSLVEALVGFEMDITHLDGHKVHISRDKITRPGAKLWKKGEGLPNFDNNNIKGSLIITFDVDFPKEQLTEEAKEGIKQLLKQGPVQKVYNGLQGY

Variants of: B1
Conditions: with bip_mouse Hspa5, P20029
bip_mouse Hspa5, P20029, sequence (P20029 whole entry): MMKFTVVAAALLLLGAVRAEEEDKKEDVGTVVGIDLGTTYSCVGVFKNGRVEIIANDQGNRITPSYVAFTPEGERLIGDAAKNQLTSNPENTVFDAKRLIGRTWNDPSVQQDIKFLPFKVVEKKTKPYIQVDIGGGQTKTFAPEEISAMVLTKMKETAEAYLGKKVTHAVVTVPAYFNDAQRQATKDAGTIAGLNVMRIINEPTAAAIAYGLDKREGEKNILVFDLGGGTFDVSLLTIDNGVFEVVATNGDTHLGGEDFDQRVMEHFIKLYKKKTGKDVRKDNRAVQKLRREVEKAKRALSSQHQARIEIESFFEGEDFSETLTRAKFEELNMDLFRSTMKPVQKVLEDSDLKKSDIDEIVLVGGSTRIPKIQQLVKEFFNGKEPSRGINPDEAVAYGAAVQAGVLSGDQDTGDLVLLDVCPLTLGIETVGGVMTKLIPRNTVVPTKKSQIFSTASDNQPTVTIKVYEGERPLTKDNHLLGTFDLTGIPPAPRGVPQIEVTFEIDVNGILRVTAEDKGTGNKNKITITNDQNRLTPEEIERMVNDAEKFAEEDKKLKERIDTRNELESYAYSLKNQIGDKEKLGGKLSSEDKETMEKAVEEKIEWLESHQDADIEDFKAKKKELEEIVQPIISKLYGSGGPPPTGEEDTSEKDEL

effect of a mutation on the interaction | Variant
disrupting interaction | H53Q
